The source of these data is publication PMC4944284, “Identification of a Functionally Relevant Adeno-Associated Virus Rep68 Oligomeric Interface” (Journal of Virology, 2016).

Residue numbers refer to the chain shown, from its start. Names may count otherwise.

Series [1] deals with the molecule itself. In words: AUC; sedimentation velocity, protein 10 uM, 25 mM Tris-HCl pH 8.0, 200 mM NaCl, 25,000 rpm, 20°C, SEDFIT (Fig. 1B, C).
Series [2] concerns the molecule itself. As to the kind of experiment: AUC; sedimentation velocity, all proteins at 1 mg/ml, else as in Materials and Methods (25 mM Tris-HCl pH 8.0, 200 mM NaCl, 20°C) (Fig. 2D).

B1: Rep68* (AAV2 Rep68 C151S) (enzyme)
chain: MPGFYEIVIKVPSDLDGHLPGISDSFVNWVAEKEWELPPDSDMDLNLIEQAPLTVAEKLQRDFLTEWRRVSKAPEALFFVQFEKGESYFHMHVLVETTGVKSMVLGRFLSQIREKLIQRIYRGIEPTLPNWFAVTKTRNGAGGGNKVVDESYIPNYLLPKTQPELQWAWTNMEQYLSACLNLTERKRLVAQHLTHVSQTQEQNKENQNPNSDAPVIRSKTSARYMELVGWLVDKGITSEKQWIQEDQASYISFNAASNSRSQIKAALDNAGKIMSLTKTAPDYLVGQQPVEDISSNRIYKILELNGYDPQYAASVFLGWATKKFGKRNTIWLFGPATTGKTNIAEAIAHTVPFYGCVNWTNENFPFNDCVDKMVIWWEEGKMTAKVVESAKAILGGSKVRVDQKCKSSAQIDPTPVIVTSNTNMCAVIDGNSTTFEHQQPLQDRMFKFELTRRLDHDFGKVTKQEVKDFFRWAKDHVVEVEHEFYVKKGGAKKRPAPSDADISEPKRVRESVAQPSTSDAEASINYADRLARGHSL
notes: source: E. coli BL21(DE3), purified (Ni column, gel filtration on Superdex 200)
With B1, the binding result in series [1] is “binds”.

B2: Rep68*-Y224D (enzyme)
chain: B1 chain with Y224D
notes: as for B1
For the protein B2, the binding result in series [1] is reported as “binds”.

B3: Rep68*-N254A (enzyme)
chain: B1 chain with N254A
notes: as for B1
As to B3, the binding result in series [2] was “binds”.

B4: Rep68*-Y224F (enzyme)
chain: B1 chain with Y224F
notes: also called Y224F mutant; source: E. coli BL21(DE3), purified (Ni column, gel filtration on Superdex 200)
For the protein B4, in series [1], the binding result is on record as “binds”.

B5: Rep68*-Y224P (enzyme)
chain: B1 chain with Y224P
notes: as for B1
As to B5, in series [1], the binding result is on record as “binds”.
